Laboratory results reported in article PMC10696418.
Read-outs that look alike come from different tables or passages of the source.

What was measured:
Experiment in all cases: SPR
[1] = biological target: CRIg-Mut-1 (CRIg Ig V domain mutant K15R/K36R/K62R/K72R/K110R), His-tagged (human)
[2] = biological target: CRIg-Mut-2 (CRIg Ig V domain mutant K15R/K36R/K62Q/K72R/K110R), His-tagged (human)
[3] = biological target: wild-type CRIg Ig V domain, His-tagged (human) (UniProt Q9Y279)
[4] = biological target: wild-type CRIg Ig V domain, His-tagged (human) (UniProt Q9Y279); remark: listed apart in the source

| Kd [1] [nM] | Kd [2] [nM] | Kd [3] [nM] | Ka-1 (two-state model, first step, association rate) [4] [M⁻¹ s⁻¹] | Ka-2 (two-state model, second step, forward rate) [4] [s⁻¹] | Kd [4] [nM] | Kd-1 (two-state model, first step, dissociation rate) [4] [s⁻¹] | Kd-2 (two-state model, second step, reverse rate) [4] [s⁻¹] | Ka-1 (two-state model, first step, association rate) [1] [M⁻¹ s⁻¹] | Ka-2 (two-state model, second step, forward rate) [1] [s⁻¹] | Kd-1 (two-state model, first step, dissociation rate) [1] [s⁻¹] | Kd-2 (two-state model, second step, reverse rate) [1] [s⁻¹] | Ka-1 (two-state model, first step, association rate) [2] [M⁻¹ s⁻¹] | Ka-2 (two-state model, second step, forward rate) [2] [s⁻¹] | Kd-1 (two-state model, first step, dissociation rate) [2] [s⁻¹] | Kd-2 (two-state model, second step, reverse rate) [2] [s⁻¹] | other results | Substance |
| --- | --- | --- | --- | --- | --- | --- | --- | --- | --- | --- | --- | --- | --- | --- | --- | --- | --- |
| 25.2 | 16.2 | 7.29 | 25100 | 0.00166 | 47.2 | 0.00714 | 0.00533 | – | – | – | – | – | – | – | – | koff [1]: 0.000441 s⁻¹; kon [1]: 18200 M⁻¹ s⁻¹; koff [2]: 0.000203 s⁻¹; kon [2]: 12600 M⁻¹ s⁻¹; koff [3]: 0.000125 s⁻¹; kon [3]: 17100 M⁻¹ s⁻¹ | C3b (from UniProt P01024 749-1663; P01024 749-1663) (domain or fragment) |
| 115 | 84.6 | 68 | 35800 | 0.00463 | 10.5 | 0.0168 | 0.000105 | 7100 | 0.00589 | 0.0209 | 0.000231 | 10600 | 0.00469 | 0.0191 | 0.000227 | Ka-1 (two-state model, first step, association rate) [3]: 16000 M⁻¹ s⁻¹; Ka-2 (two-state model, second step, forward rate) [3]: 0.00376 s⁻¹; Kd-1 (two-state model, first step, dissociation rate) [3]: 0.0207 s⁻¹; Kd-2 (two-state model, second step, reverse rate) [3]: 0.000206 s⁻¹ | iC3b (from UniProt P01024 23-667; P01024 1321-1663) (domain or fragment) |
| 2780 | 1130 | – | – | – | – | – | – | 12000 | 0.0052 | 0.0491 | 0.00928 | 14800 | 0.00262 | 0.0271 | 0.00414 | – | C3c (from UniProt P01024 23-667; P01024 749-954; P01024 1321-1663) (domain or fragment) |
